Reference: US20040082509

Columns and labels:
[1] = target: T1, D-TAT-JNKI1 (i.e., D-TAT-JBD20)
T1 chain: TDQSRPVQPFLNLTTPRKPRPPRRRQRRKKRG

[2] = target: T2, L-TAT-JNKI1 (i.e., L-TAT-JBD20)
T2 chain: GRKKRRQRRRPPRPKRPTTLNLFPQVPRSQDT

[3] = target: T3, D-TAT-IB1 peptide
T3 chain: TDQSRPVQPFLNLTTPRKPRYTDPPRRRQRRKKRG

[4] = target: T4, L-TAT-IB1 peptide
T4 chain: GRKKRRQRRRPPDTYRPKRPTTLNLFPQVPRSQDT

[5] = target: T5, L-TAT-IB2 peptide
T5 chain: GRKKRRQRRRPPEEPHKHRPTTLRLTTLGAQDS

B1: recombinant JNK1α1 (protein)
chain: MSRSKRDNNFYSVEIGDSTFTVLKRYQNLKPIGSGAQGIVCAAYDAILERNVAIKKLSRPFQNQTHAKRAYRELVLMKCVNHKNIIGLLNVFTPQKSLEEFQDVYIVMELMDANLCQVIQMELDHERMSYLLYQMLCGIKHLHSAGIIHRDLKPSNIVVKSDCTLKILDFGLARTAGTSFMMTPYVVTRYYRAPEVILGMGYKENVDLWSVGCIMGEMVCHKILFPGRDYIDQWNKVIEQLGTPCPEFMKKLQPTVRTYVENRPKYAGYSFEKLFPDVLFPADSEHNKLKASQARDLLSKMLVIDASKRISVDEALQHPYINVWYDPSEAEAPPPKIPDKQLDEREHTIEEWKELIYKEVMDLEERTKNGVIRGQPSPLAQVQQ
in vitro phosphorylation of GST-Jun and GST-Elk1 by JNK1α1, kinase assay [1]: their ability to prevent the phosphorylation in vitro of known JNK targets c-Jun and Elk1 using JNK1α1 | in vitro phosphorylation of GST-Jun and GST-Elk1 by JNK1α1, kinase assay [2]: their ability to prevent the phosphorylation in vitro of known JNK targets c-Jun and Elk1 using JNK1α1

B2: recombinant nonactivated JNK1 (protein)
chain: MSRSKRDNNFYSVEIGDSTFTVLKRYQNLKPIGSGAQGIVCAAYDAILERNVAIKKLSRPFQNQTHAKRAYRELVLMKCVNHKNIIGLLNVFTPQKSLEEFQDVYIVMELMDANLCQVIQMELDHERMSYLLYQMLCGIKHLHSAGIIHRDLKPSNIVVKSDCTLKILDFGLARTAGTSFMMTPYVVTRYYRAPEVILGMGYKENVDLWSVGCIMGEMVCHKILFPGRDYIDQWNKVIEQLGTPCPEFMKKLQPTVRTYVENRPKYAGYSFEKLFPDVLFPADSEHNKLKASQARDLLSKMLVIDASKRISVDEALQHPYINVWYDPSEAEAPPPKIPDKQLDEREHTIEEWKELIYKEVMDLEERTKNGVIRGQPSPLGAAVINGSQHPSSSSSVNDVSSMSTDPTLASDTDSSLEAAAGPLGCCR
GST-Jun (a.a. 1-73) phosphorylation by recombinant JNK1, fold less efficient than L-TAT-IB1 (0-250 µM dosage study) [3]: approximately 10-20 fold less efficiently than L-TAT-IB1 | phosphorylation of c-Jun, ATF2 and Elk1 by recombinant JNK1, solid phase kinase assay (peptide 0-25 µM) [4]: Nearly complete inhibition of c-Jun, ATF2 and Elk1 phosphorylation by JNKs was observed at TAT-IB peptide doses as low as 2.5 µM | phosphorylation of c-Jun, ATF2 and Elk1 by recombinant JNK1, solid phase kinase assay (peptide 0-25 µM) [5]: Nearly complete inhibition of c-Jun, ATF2 and Elk1 phosphorylation by JNKs was observed at TAT-IB peptide doses as low as 2.5 µM

B3: recombinant nonactivated JNK2 (protein)
chain: MSDSKCDSQFYSVQVADSTFTVLKRYQQLKPIGSGAQGIVCAAFDTVLGINVAVKKLSRPFQNQTHAKRAYRELVLLKCVNHKNIISLLNVFTPQKTLEEFQDVYLVMELMDANLCQVIHMELDHERMSYLLYQMLCGIKHLHSAGIIHRDLKPSNIVVKSDCTLKILDFGLARTACTNFMMTPYVVTRYYRAPEVILGMGYKENVDIWSVGCIMGELVKGCVIFQGTDHIDQWNKVIEQLGTPSAEFMKKLQPTVRNYVENRPKYPGIKFEELFPDWIFPSESERDKIKTSQARDLLSKMLVIDPDKRISVDEALRHPYITVWYDPAEAEAPPPQIYDAQLEEREHAIEEWKELIYKEVMDWEERSKNGVVKDQPSDAAVSSNATPSQSSSINDISSMSTEQTLASDTDSSLDASTGPLEGCR
GST-Jun (a.a. 1-73) phosphorylation by recombinant JNK2, fold less efficient than L-TAT-IB1 (0-250 µM dosage study) [3]: approximately 10-20 fold less efficiently than L-TAT-IB1 | phosphorylation of c-Jun, ATF2 and Elk1 by recombinant JNK2, solid phase kinase assay (peptide 0-25 µM) [4]: Nearly complete inhibition of c-Jun, ATF2 and Elk1 phosphorylation by JNKs was observed at TAT-IB peptide doses as low as 2.5 µM | phosphorylation of c-Jun, ATF2 and Elk1 by recombinant JNK2, solid phase kinase assay (peptide 0-25 µM) [5]: Nearly complete inhibition of c-Jun, ATF2 and Elk1 phosphorylation by JNKs was observed at TAT-IB peptide doses as low as 2.5 µM

B4: recombinant nonactivated JNK3 (protein)
chain: MSLHFLYYCSEPTLDVKIAFCQGFDKQVDVSYIAKHYNMSKSKVDNQFYSVEVGDSTFTVLKRYQNLKPIGSGAQGIVCAAYDAVLDRNVAIKKLSRPFQNQTHAKRAYRELVLMKCVNHKNIISLLNVFTPQKTLEEFQDVYLVMELMDANLCQVIQMELDHERMSYLLYQMLCGIKHLHSAGIIHRDLKPSNIVVKSDCTLKILDFGLARTAGTSFMMTPYVVTRYYRAPEVILGMGYKENVDIWSVGCIMGEMVRHKILFPGRDYIDQWNKVIEQLGTPCPEFMKKLQPTVRNYVENRPKYAGLTFPKLFPDSLFPADSEHNKLKASQARDLLSKMLVIDPAKRISVDDALQHPYINVWYDPAEVEAPPPQIYDKQLDEREHTIEEWKELIYKEVMNSEEKTKNGVVKGQPSPSGAAVNSSESLPPSSSVNDISSMSTDQTLASDTDSSLEASAGPLGCCR
GST-Jun (a.a. 1-73) phosphorylation by recombinant JNK3, fold less efficient than L-TAT-IB1 (0-250 µM dosage study) [3]: approximately 10-20 fold less efficiently than L-TAT-IB1 | phosphorylation of Elk1 by recombinant JNK3, solid phase kinase assay [4]: a marked exception was the absence of TAT-IB inhibition of JNK3 phosphorylation of Elk1 | phosphorylation of c-Jun and ATF2 by recombinant JNK3, solid phase kinase assay (peptide 0-25 µM) [4]: Nearly complete inhibition of c-Jun, ATF2 and Elk1 phosphorylation by JNKs was observed at TAT-IB peptide doses as low as 2.5 µM | phosphorylation of Elk1 by recombinant JNK3, solid phase kinase assay [5]: a marked exception was the absence of TAT-IB inhibition of JNK3 phosphorylation of Elk1 | phosphorylation of c-Jun and ATF2 by recombinant JNK3, solid phase kinase assay (peptide 0-25 µM) [5]: Nearly complete inhibition of c-Jun, ATF2 and Elk1 phosphorylation by JNKs was observed at TAT-IB peptide doses as low as 2.5 µM

B5: MKK7 kinase (protein)
chain: MAASSLEQKLSRLEAKLKQENREARRRIDLNLDISPQRPRPTLQLPLANDGGSRSPSSESSPQHPTPPARPRHMLGLPSTLFTPRSMESIEIDQKLQEIMKQTGYLTIGGQRYQAEINDLENLGEMGSGTCGQVWKMRFRKTGHVIAVKQMRRSGNKEENKRILMDLDVVLKSHDCPYIVQCFGTFITNTDVFIAMELMGTCAEKLKKRMQGPIPERILGKMTVAIVKALYYLKEKHGVIHRDVKPSNILLDERGQIKLCDFGISGRLVDSKAKTRSAGCAAYMAPERIDPPDPTKPDYDIRADVWSLGISLVELATGQFPYKNCKTDFEVLTKVLQEEPPLLPGHMGFSGDFQSFVKDCLTKDHRKRPKYNKLLEHSFIKRYETLEVDVASWFKDVMAKTESPRTSGVLSQPHLPFFR
kinase activity towards its substrate, panel of 40 kinases (10 µM peptides, 10 µM ATP) [1]: the JNKI peptides had an affect on the JNKs and MKK4 and MKK7 kinases | kinase activity towards its substrate, panel of 40 kinases (10 µM peptides, 10 µM ATP) [2]: the JNKI peptides had an affect on the JNKs and MKK4 and MKK7 kinases

B6: MKK4 kinase (protein)
chain: MAAPSPSGGGGSGGGSGSGTPGPVGSPAPGHPAVSSMQGKRKALKLNFANPPFKSTARFTLNPNPTGVQNPHIERLRTHSIESSGKLKISPEQHWDFTAEDLKDLGEIGRGAYGSVNKMVHKPSGQIMAVKRIRSTVDEKEQKQLLMDLDVVMRSSDCPYIVQFYGALFREGDCWICMELMSTSFDKFYKYVYSVLDDVIPEEILGKITLATVKALNHLKENLKIIHRDIKPSNILLDRSGNIKLCDFGISGQLVDSIAKTRDAGCRPYMAPERIDPSASRQGYDVRSDVWSLGITLYELATGRFPYPKWNSVFDQLTQVVKGDPPQLSNSEEREFSPSFINFVNLCLTKDESKRPKYKELLKHPFILMYEERAVEVACYVCKILDQMPATPSSPMYVD
kinase activity towards its substrate, panel of 40 kinases (10 µM peptides, 10 µM ATP) [1]: the JNKI peptides had an affect on the JNKs and MKK4 and MKK7 kinases | kinase activity towards its substrate, panel of 40 kinases (10 µM peptides, 10 µM ATP) [2]: the JNKI peptides had an affect on the JNKs and MKK4 and MKK7 kinases
